# Reference: PMC11980035, “Activation of automethylated PRC2 by dimerization on chromatin” (Molecular cell, 2024)
# B1: Embryonic ectoderm development (EED), subunit of recombinant human PRC2 (natural protein)
# chain: not shown
# notes: EED, human, full-length; Stood in the assay as a subunit of PRC2; also called EED^prox; EED^dist; source: as subunit of m1: HighFive / Trichoplusia ni insect cells, baculovirus, purified within PRC2
# Biological target: T1, Enhancer of zeste homolog 2 (EZH2), isoform 2, subunit of recombinant human PRC2, automethylated (human, UniProt Q15910-2 1-751, K510, K514 and K515 methylated to varying degrees (automethylation))
# T1 construct: EZH2 isoform 2, human, full-length; Stood in the assay as a subunit of PRC2; also called EZH2^dist; EZH2^prox; source: as subunit of m1: HighFive / Trichoplusia ni insect cells, baculovirus, purified within PRC2
# T1 sequence (Q15910 other isoform, or with tags, fused parts or gaps): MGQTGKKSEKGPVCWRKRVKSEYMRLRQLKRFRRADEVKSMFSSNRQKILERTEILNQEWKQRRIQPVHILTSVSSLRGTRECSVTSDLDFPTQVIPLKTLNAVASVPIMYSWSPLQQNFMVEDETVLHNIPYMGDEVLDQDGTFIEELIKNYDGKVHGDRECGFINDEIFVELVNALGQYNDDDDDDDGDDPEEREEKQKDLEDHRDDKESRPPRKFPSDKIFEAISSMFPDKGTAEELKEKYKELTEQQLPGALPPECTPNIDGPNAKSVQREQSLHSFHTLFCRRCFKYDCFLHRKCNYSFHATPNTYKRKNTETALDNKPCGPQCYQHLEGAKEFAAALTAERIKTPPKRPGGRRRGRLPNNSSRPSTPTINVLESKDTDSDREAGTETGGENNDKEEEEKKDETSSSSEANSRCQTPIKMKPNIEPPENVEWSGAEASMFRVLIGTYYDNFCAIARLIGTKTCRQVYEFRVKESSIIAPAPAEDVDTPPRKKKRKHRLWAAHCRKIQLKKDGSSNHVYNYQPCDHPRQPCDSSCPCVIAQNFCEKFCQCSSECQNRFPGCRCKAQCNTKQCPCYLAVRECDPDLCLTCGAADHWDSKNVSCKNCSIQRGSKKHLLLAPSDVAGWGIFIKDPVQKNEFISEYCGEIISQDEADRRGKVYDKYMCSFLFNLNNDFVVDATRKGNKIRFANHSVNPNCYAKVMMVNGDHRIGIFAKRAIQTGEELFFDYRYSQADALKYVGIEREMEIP
# Assay: cryo-EM structure; 800 nM automethylated PRC2 with 200 nM biotinylated nucleosome and 100 μM SAH in 25 mM HEPES pH 7.9, 50 mM KCl, 1 mM TCEP, 30 minutes at RT; nucleosome held on streptavidin affinity grids; classes of a PRC2 dimer and of a PRC2 monomer on the nucleosome
# Settings: both partners purified
binder,measurement,value
B1,binding result,binds
